B1: GFP-Sgo1 (472-530) [S. cerevisiae] / Ycg1 (6–932, Δ499–555)-Brn1 (384–529) [S. cerevisiae] (parent complex)
chain 1: KNEKKLTSNNSPKKSSPLLDITNKSENKKKSTRTKKLFKNAIVNNLSDENSTTRPSKSS
chain 2: GIDINTKIFNSVAEVFQKAQGSYAGHRKHIAVLKKIQSKAVEQGYEDAFNFWFDKLVTKILPLKKNEIIGDRIVKLVAAFIASLERELILAKKQNYKLTNDEEGIFSRFVDQFIRHVLRGVESPDKNVRFRVLQLLAVIMDNIGEIDESLFNLLILSLNKRIYDREPTVRIQAVFCLTKFQDEEQTEHLTELSDNEENFEATRTLVASIQNDPSAEVRRAAMLNLINDNNTRPYILERARDVNIVNRRLVYSRILKSMGRKCFDDIEPHIFDQLIEWGLEDRELSVRNACKRLIAHDWLNALDGDLIELLEKLDVSRSSVCVKAIEALFQSRPDILSKIKFPESIWKDFTVEIAFLFRAIYLYCLDNNITEMLEENFPEASKLSEHLNHYILLRYHHNDISNDSQSHFDYNTLEFIIEQLSIAAERYDYSDEVGRRSMLTVVRNMLALTTLSEPLIKIGIRVMKSLSINEKDFVTMAIEIINDIRDDDIEKQESESDIINNLPPEKEASSATIVLCLTRSSYMLELVNTPLTENILIASLMDTLITPAVRNTAPNIRELGVKNLGLCCLLDVKLAIDNMYILGMCVSKGNASLKYIALQVIVDIFSVHGNTVVDGEGKVDSISLHKIFYKVLKNNGLPECQVIAAEGLCKLFLADVFTDDDLFETLVLSYFSPINSSNEALVQAFAFCIPVYCFSHPAHQQRMSRTAADILLRLCVLWDDLQSSVIPEVDREAMLKPNIIFQQLLFWTDPRNLVNQTGSTKKDTVQLTFLIDVLKIYAQIEKKEIKKMIITNINAIFLSSEQDYSTLKELLEYSDDIAENDNLDNVSKNALDKLRNNLNSLIEEINERSETQTKDENNTANDQYSSILGN
chain 3: SIFEKDLMAYFDENLNRNWRGREHWKVRNFKKANLVNKESDLLEETRTTIGDTTDKNTTDDKSMDTKKKHKQKKVLEIDFFKTDDSFEDKVFASKGRTKIDMPIKNRKNDTHYLLPDDFHFSTDRITRLFIKPGQKMSLFSHRKHT

Variants of: B1
Assay: co-immunoprecipitation (anti-GFP-coupled beads), silver-stained SDS-PAGE band quantification; 25 mM HEPES pH 7.5, 500 mM NaCl, 10% glycerol, 1 mM DTT, 0.1% NP-40; 2.5 h incubation; parent: 1; read off a plot

Row | Variant | ratio to parent
1 | chain 1 L37E, chain 1 F38E, chain 1 I42E, chain 1 V43E | ~0.54
2 | chain 1 L37E, chain 1 F38E | ~0.37
3 | chain 1 I42E, chain 1 V43E | ~0.51

Second part, the variant after the results:

Row | ratio to parent | Variant
4 | ~0.84 | chain 1 L37E, chain 1 F38E, chain 1 I42E, chain 1 V43E, chain 1 L46E
5 | ~0.66 | chain 1 L46E
